# Data reported in patent US20210246178A1 (DEUTSCHES KREBSFORSCHUNGSZENTRUM STIFTUNG DES FFENTLICHEN …, published 2021).
# B1: MSBI1.176 Rep protein WH1 domain (residues 1-135) (other)
# chain: MSDLIVKDNALMNASYNLALVEQRLILLAIIEARETGKGINANDPLTVHASSYINQFNVERHTAYQALKDACKDLFARQFSYQEKRERGRINITSRWVSQIGYMDDTATVEIIFAPAVVPLITRLEEQFTQYDIE
# notes: This entry is one protomer; Two protomers (A and B) form the WH1 homodimer in the crystal, so the self-pair is written as m1 with m1; The construct of residues 1-135 was expressed in E. coli as a His-tagged fusion in modified pMal-c2X and cleaved with HRV-3C protease; also called MSBI1.176 WH1; MSBI1 WH1
# Target: the molecule itself
# Assay: X-ray crystal structure, 1.53 Å
protein,measurement,value
B1,binding result,binds
